Measured values as given in patent US20110263827A1 (AbbVie / Abbott, published 2011).
Blank lines part the entries; values can stand above or below the binder they belong to.

Assays:
ErbB3 = molecular target: T1, ErbB3 (UniProt P21860 20-643, limits assumed, biotinylated); test: direct bind ELISA, C-term VD;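 also: ELISA with antibody or DVD-Ig preparations applied to target antigen-coated plates for 1 h at room temperature, TMB colour development, absorbance read at 450 nm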
T1 construct: ELISA antigen

EGFR = molecular target: T2, EGFR (UniProt P00533 25-645, limits assumed, biotinylated); test: direct bind ELISA, N-term VD;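 also: antibody or DVD-Ig preparations bound to immobilized target antigen on ELISA plates, 1 h at room temperature, TMB detection read as absorbance at 450 nm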
T2 construct: ELISA antigen; construct not described

B1: DVD329 (bispecific antibody)
VH: QVQLQESGPGLVKPSQTLSLTCTVSGYSISSDFAWNWIRQPPGKGLEWMGYISYSGNTRYQPSLKSRITISRDTSKNQFFLKLNSVTAADTATYYCVTAGRGFPYWGQGTLVTVSSASTKGPEVQLVESGGGLVQPGGSLRLSCAASGFTFSIYSMNWVRQAPGKGLEWVSYISSSSSTIYYADSVKGRFTISRDNAKNSLYLQMNSLRDEDTAVYYCARDRGDFDAFDIWGQGTMVTVSS
VL: DIQMTQSPSSMSVSVGDRVTITCHSSQDINSNIGWLQQKPGKSFKGLIYHGTNLDDGVPSRFSGSGSGTDYTLTISSLQPEDFATYYCVQYAQFPWTFGGGTKLEIKRTVAAPDIQMTQSPSSLSASVGDRVTITCQASQDITNYLNWYQQKPGKAPKLLIYDASNLETGVPSRFSGSGSGTDFTFTISSLQPEDIATYNCQQCENFPITFGQGTRLEIKR
notes: DVD-Ig; HC S, LC S; variable parts only
EC50 (ErbB3): 481 nM
EC50 (EGFR): 3.82 nM

B2: DVD755 (bispecific antibody)
VH: QVQLQESGPGLVKPSQTLSLTCTVSGYSISSDFAWNWIRQPPGKGLEWMGYISYSGNTRYQPSLKSRITISRDTSKNQFFLKLNSVTAADTATYYCVTAGRGFPYWGQGTLVTVSSASTKGPEVQLLESGGGLVQPGGSLRLSCAASGFTFSHYVMAWVRQAPGKGLEWVSSISSSGGWTLYADSVKGRFTISRDNSKNTLYLQMNSLRAEDTAVYYCTRGLKMATIFDYWGQGTLVTVSS
VL: DIQMTQSPSSMSVSVGDRVTITCHSSQDINSNIGWLQQKPGKSFKGLIYHGTNLDDGVPSRFSGSGSGTDYTLTISSLQPEDFATYYCVQYAQFPWTFGGGTKLEIKRTVAAPQSALTQPASVSGSPGQSITISCTGTSSDVGSYNVVSWYQQHPGKAPKLIIYEVSQRPSGVSNRFSGSKSGNTASLTISGLQTEDEADYYCCSYAGSSIFVIFGGGTKVTVLG
notes: as for B1
EC50 (ErbB3): 27.7 nM
EC50 (EGFR): 3.26 nM

B7: DVD799 (bispecific antibody)
VH: QVQLQESGPGLVKPSQTLSLTCTVSGYSISSDFAWNWIRQPPGKGLEWMGYISYSGNTRYQPSLKSRITISRDTSKNQFFLKLNSVTAADTATYYCVTAGRGFPYWGQGTLVTVSSASTKGPSVFPLAPQVQLQQWGAGLLKPSETLSLTCAVYGGSFSGYYWSWIRQPPGKGLEWIGEINHSGSTNYNPSLKSRVTISVETSKNQFSLKLSSVTAADTAVYYCARDKWTWYFDLWGRGTLVTVSS
VL: DIQMTQSPSSMSVSVGDRVTITCHSSQDINSNIGWLQQKPGKSFKGLIYHGTNLDDGVPSRFSGSGSGTDYTLTISSLQPEDFATYYCVQYAQFPWTFGGGTKLEIKRTVAAPDIEMTQSPDSLAVSLGERATINCRSSQSVLYSSSNRNYLAWYQQNPGQPPKLLIYWASTRESGVPDRFSGSGSGTDFTLTISSLQAEDVAVYYCQQYYSTPRTFGQGTKVEIKR
notes: DVD-Ig; HC L, LC S; variable parts only
EC50 (ErbB3): 20 nM
EC50 (EGFR): 5.76 nM

B8: DVD829 (bispecific antibody)
VH: QVQLQESGPGLVKPSQTLSLTCTVSGYSISSDFAWNWIRQPPGKGLEWMGYISYSGNTRYQPSLKSRITISRDTSKNQFFLKLNSVTAADTATYYCVTAGRGFPYWGQGTLVTVSSASTKGPQVQLQQWGAGLLKPSETLSLTCAVYGGSFSGYYWSWIRQPPGKGLEWIGEINHSGSTNYNPSLKSRVTISVETSKNQFSLKLSSVTAADTAVYYCARDKWTWYFDLWGRGTLVTVSS
VL: DIQMTQSPSSMSVSVGDRVTITCHSSQDINSNIGWLQQKPGKSFKGLIYHGTNLDDGVPSRFSGSGSGTDYTLTISSLQPEDFATYYCVQYAQFPWTFGGGTKLEIKRTVAAPSVFIFPPDIEMTQSPDSLAVSLGERATINCRSSQSVLYSSSNRNYLAWYQQNPGQPPKLLIYWASTRESGVPDRFSGSGSGTDFTLTISSLQAEDVAVYYCQQYYSTPRTFGQGTKVEIKR
notes: DVD-Ig; HC S, LC L; variable parts only
EC50 (ErbB3): 41.4 nM
EC50 (EGFR): 3.81 nM

B9: DVD327 (bispecific antibody)
VH: B8 VH
VL: B7 VL
notes: as for B1
EC50 (ErbB3): 485 nM
EC50 (EGFR): 3.98 nM

Now those with a lower EC50 (ErbB3), led by results:

EC50 (ErbB3): 14.4 nM
EC50 (EGFR): 3.78 nM
B3: DVD787 (bispecific antibody)
VH: QVQLQESGPGLVKPSQTLSLTCTVSGYSISSDFAWNWIRQPPGKGLEWMGYISYSGNTRYQPSLKSRITISRDTSKNQFFLKLNSVTAADTATYYCVTAGRGFPYWGQGTLVTVSSASTKGPSVFPLAPEVQLLESGGGLVQPGGSLRLSCAASGFTFSHYVMAWVRQAPGKGLEWVSSISSSGGWTLYADSVKGRFTISRDNSKNTLYLQMNSLRAEDTAVYYCTRGLKMATIFDYWGQGTLVTVSS
VL: DIQMTQSPSSMSVSVGDRVTITCHSSQDINSNIGWLQQKPGKSFKGLIYHGTNLDDGVPSRFSGSGSGTDYTLTISSLQPEDFATYYCVQYAQFPWTFGGGTKLEIKRTVAAPSVFIFPPQSALTQPASVSGSPGQSITISCTGTSSDVGSYNVVSWYQQHPGKAPKLIIYEVSQRPSGVSNRFSGSKSGNTASLTISGLQTEDEADYYCCSYAGSSIFVIFGGGTKVTVLG
notes: DVD-Ig; HC L, LC L; variable parts only

EC50 (ErbB3): 18.8 nM
EC50 (EGFR): 5.33 nM
B4: DVD817 (bispecific antibody)
VH: B3 VH
VL: B2 VL
notes: as for B7

EC50 (ErbB3): 12.9 nM
EC50 (EGFR): 2.92 nM
B5: DVD847 (bispecific antibody)
VH: B2 VH
VL: B3 VL
notes: as for B8

EC50 (ErbB3): 8.23 nM
EC50 (EGFR): 3.59 nM
B6: DVD769 (bispecific antibody)
VH: B7 VH
VL: B8 VL
notes: as for B3

EC50 (ErbB3): 1.38 nM
EC50 (EGFR): 4.43 nM
B10: DVD771 (bispecific antibody)
VH: QVQLQESGPGLVKPSQTLSLTCTVSGYSISSDFAWNWIRQPPGKGLEWMGYISYSGNTRYQPSLKSRITISRDTSKNQFFLKLNSVTAADTATYYCVTAGRGFPYWGQGTLVTVSSASTKGPSVFPLAPEVQLVESGGGLVQPGGSLRLSCAASGFTFSIYSMNWVRQAPGKGLEWVSYISSSSSTIYYADSVKGRFTISRDNAKNSLYLQMNSLRDEDTAVYYCARDRGDFDAFDIWGQGTMVTVSS
VL: DIQMTQSPSSMSVSVGDRVTITCHSSQDINSNIGWLQQKPGKSFKGLIYHGTNLDDGVPSRFSGSGSGTDYTLTISSLQPEDFATYYCVQYAQFPWTFGGGTKLEIKRTVAAPSVFIFPPDIQMTQSPSSLSASVGDRVTITCQASQDITNYLNWYQQKPGKAPKLLIYDASNLETGVPSRFSGSGSGTDFTFTISSLQPEDIATYNCQQCENFPITFGQGTRLEIKR
notes: as for B3

EC50 (ErbB3): 1.42 nM
EC50 (EGFR): 4.6 nM
B11: DVD831 (bispecific antibody)
VH: B1 VH
VL: B10 VL
notes: as for B8

EC50 (ErbB3): 3.28 nM
EC50 (EGFR): 3.91 nM
B12: DVD801 (bispecific antibody)
VH: B10 VH
VL: B1 VL
notes: as for B7
